In the domain aggregation screens of Martell et al. (2025):

Test: soluble fraction after stress (log2 fold change); higher = more stays soluble; pooled small domains, quantitative proteomics
Details: stress: 50 degC
Outline: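 The stress applied to every library was 50°C. These custom libraries of small protein domains were pooled and measured at high throughput with quantitative proteomics as the read-out. Aggregation propensity is expressed as the base-two logarithm of the fold change in how much of each protein remains soluble. The higher the value, the more of that protein stays in solution.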

## HMGNFNDMLKYLRVREKMSQAELADKLGVSKSTVGMYELGKREPDFETLEAIADLFNVDMNFLLGK
  soluble fraction (log2): -0.35

## HMETPSNTAGITHATSDGYIFKGESDIIGRNSFGFIVKHGSHNHIIPFDSLRGTKWEYLINKYT
  soluble fraction (log2): 0.21

## HMSTMKSKWFVSSNPIAGVMKYQAQRKKDVNAVDSSENREASGQWYTDKEEAQAIVDKLNAEEQIKEAGK
  soluble fraction (log2): 0.159

## HMSAMKYTSEVFQRLSRGQFISSNSIDAETRAIYSDIEENQQEYEDYFSKIDFLLSSGDGFYYFSRK
  soluble fraction (log2): -2.4

## HMSMSTVGERIKKKRKNLNFTQQELAAKLNISAQAVSKWENGVALPDLGLMPKLAQVLESTVDGLLGYQGA
  soluble fraction (log2): 0.0315

## HMGSEGVKVEDTIGMSEAEATATLGKSGFVVNKTESHDPYIKAGNVITQSPAAGSKAPKGTTVTLTISLGP
  soluble fraction (log2): 0.131

## HMQVTPQVLRLLDVLGDKELSLRQIAEALGLSDRKNIMRNYVVPALDSGRVVRTVPNKPNSRFQKYRK
  soluble fraction (log2): -0.404

## HMGRKPATTIPLQVRNAVLDLYRTKYYGANFQHYTELLHEHEGIRISTSSVAKILEAEYILSPK
  soluble fraction (log2): -1.69

## HMSREVTVPPLSGLTLRDAARTLAERGLLMEAEGQGAVHRQDPPAGTRVPTGTPVRVFLTLPEQNS
  soluble fraction (log2): 0.333

## HMAEPSTSYTQFMDQAKEGKIKRVDVQGRTLTVTPTEGATYKITAPGDLWMVEDLRKAGVQVYGQP
  soluble fraction (log2): 0.207

## HMDLLVWRVADEDAGERIDKLVVDSLDDVSRTAVQQWIKDGLVTVNGKTVKPNYKAAAGDEVAVSVPEPE
  soluble fraction (log2): 0.149

## HMVVVVELTENEKAVQDVLTKNEGSLEISDLKTKLELSGKQWDKALKGLAKHGITQVAKVDGVVTVSL
  soluble fraction (log2): -0.303

## HMTQEHDESVNLGKRLLDQALSRFGTSYRQLKKSEIKRILQSSGASTFKYILHQIGLGNRVPLAIANLIV
  soluble fraction (log2): -0.0734

## HMVVVLPGETIKIDLIREGKDKQALGYLEDGTMIVVDNAKHLIGKNVEIEIDNVLPKEAGRVIFASLHGA
  soluble fraction (log2): -0.109

## HMNSSLFLARQVHALRKKAGLTLQQLSRKSDVSVSTLSKIEKGQLSPTYEKIVSLARGLDVPIAALFHE
  soluble fraction (log2): -0.976

## HMKLTPKQQQIYDFISSFADEHGYPPSVREIAQAVNLKSPATVHFHLKGLREAGYISQAEGKTRAITI
  soluble fraction (log2): -0.117

## HMEVFTPSEANVAEAREILAAMATAKANGEGATVYKGRLVDIASIKQAEVIVRQSEMIQSAH
  soluble fraction (log2): 0.408

## HMAQTSAELIIEYLKRNDGFMELTDKSPADEIYETFGISKKNFKMAVGSLYKNRVIEIGQNGIRLVE
  soluble fraction (log2): -0.216

## HMKIELSDNEKIIYDLLSSQHVLLSEIKDKAGLSNKAWDKSTKSLRKLGLIAVEKKDDDIYISKL
  soluble fraction (log2): -0.0233

## HMAMDSGELEAIVDRLISEHPDDWAALTAGDDRERKKKSGFFVGEVMKATRGQADGRAVIELLASRSA
  soluble fraction (log2): 0.00605

## HMDKPGMRLNQFIAHSGISSRREADNLIKAGLVQVNGKIIVEMGFRVMPTDIVKFNNETIAS
  soluble fraction (log2): -1.46

## HMSISEFNYTEFNGLVEKGQVSEVTISGREIEGRLTSGESFKTYSPETDNSALVGDLLKNNVKINGKP
  soluble fraction (log2): 0.12

## HMEDPVAQEARAAFEVGRLLAAATGPVTLAAIRRAIDLPEERLEEILRRLEESGAVRRARDGWLPG
  soluble fraction (log2): 0.0888

## HMDVSVPDVTGTRLDRAQSLLEAQGLTLGKVEEFFHATEPAGIVYDQEPRPGTRVDEGTAISVSVSKGPEA
  soluble fraction (log2): 0.0552

## HMNLGVIYSLKAEVRSEPNTFSTRLFEVHEGLKVSINQLENDWVEIELLDGKTGWISNDQIRLI
  soluble fraction (log2): -2.12

## HMDEQKNREIALIENIQREDLNPYEKALGIRNLMDKYGLTQEEVSKRIGKSRSAVSNTVRILNLAPDVL
  soluble fraction (log2): 0.0391

## HMRRKNQVQSSYQKRENGTYTVRFFLSDDMGSIMDLQLMATREDMARALRERFLKDPEKIYGQIMQMLLR
  soluble fraction (log2): -0.255

## HMAAPPPLSDYRNMQEAEHIRNILLQHHGNVRRAAAALELSRPYLYQKMKQLGINIAELRELSLSHSS
  soluble fraction (log2): -0.559

## HMVGAEDISKPMNLGALMRTAHAFGASFFFTINAHPKVRHAYNSDTSRSFDHMPYYPWDTMEE
  soluble fraction (log2): 0.129

## HMLDEIAGQKVRVLEEINNSEGTGKVMYRGVEWMARSVDDAVMAKDSIVTVQSISGVKLMVT
  soluble fraction (log2): -0.0685

## HMGLSNYEFNSISQTVKEKLEQGPLTLKALVDETAHLFAEDKVVSVVQWLIDQRDLAYDDHGLLQWKG
  soluble fraction (log2): -0.418

## HMAAGVESLTEKEFAVASLVGGGASNREIAERLAMSERTVKSHLSSIFRKMDVRDRVQLALAMND
  soluble fraction (log2): 0.00815

## HMSAEGPALADWVVRDAHSIGAKITNSVAQLLIDRVGHNQQLLHNELQKLALVQTDISAELVKTMSHY
  soluble fraction (log2): 0.0302

## HMQISGSEELEKIVQTVLEKNTDVVEEYKSGKTKVFAFLMGQVMKESRGKANPRLAKDILEKFLA
  soluble fraction (log2): -0.0362

## HMITTLLVENLQDVGMRLDHYLVYNLIKYSRSHIQSFIRSGDIRVNGKKVKTGYSLELKDLIHIEMP
  soluble fraction (log2): -3.75

## HMSAVIGTATVTTSSGSLNLRESASLYSRVIRTIPRGATVDVLSRDTSWSRVRYAGSEGYVLNQYLTFQT
  soluble fraction (log2): -0.0809

## HMDSLIEYENERSLRRLINENLSDYERTVWWLYYAGADAAHIAEQTGRSKRSAENAITRVRRKLRALITQS
  soluble fraction (log2): -1.08

## HMTMRFVVADGQNFGSIAQSKALEAVKKGNTEFNYKDVDYTVDIQSDDFYVVYQGRDIMGYASR
  soluble fraction (log2): -2

## HMNQSAVMAERMKQTKNRILQTAKEIFLEQGYKRTTIRQIVERSGITSGSIYNIFSSKEEIFSALVDDL
  soluble fraction (log2): -2.65

## HMSSRSLTYSDFIERVDAGQVDAVTLDGERIVIRAKDGNTYVAIKPQGEDVTGSLTRDLIAKGVDVEAEPQ
  soluble fraction (log2): 0.0928

## HMREGIQLGDPVRVIRDPLFGKIGAVSGLPSELRAIPTESEVRVLEVRFPDGTTTVVPRANIEVIEG
  soluble fraction (log2): 0.364

## HMDQQTKFKTALAALAASAETKDRKLTKADVKEFLEDMDLGEEQMKLVYAYLASKHIHVEGAE
  soluble fraction (log2): 0.178

## HMIDEPENLIQEDKMVNIIYDLALLEGVKTFNSSNFQSVKSNDFVYKKYKIDSLQFAKSTQFYASDINR
  soluble fraction (log2): -0.168

## HMASPRVWKDASSGRTLTGEFVELTKDAVKVRRANGDVVSLPLSRLTEEDITFAKGASETGGA
  soluble fraction (log2): 0.146

## HMNNMVNTLLKLLAEQDVLRGIVRRFTPSSVFVFLQNEEVEVELPLQGRSLAPGQLVELTQEGASVALKRL
  soluble fraction (log2): -0.647

## HMIQVNKTQALIIEEMRDNPNITLLELQKTLSLGRTAIQNNVSSLRKRQIIKRVGSNKNGYWEVTDK
  soluble fraction (log2): -1.95

## HMGMYFTEMRKNEGLIALNGVAESNKRVSDLMDNLKDSSSFDAADIKAVKSGSGDASSLMDFELLVT
  soluble fraction (log2): 0.113

## HMDDPEISQEQRQQLFRTAKEHFGASGNDVLKEILADHGRDSTVKMPVSVFAEIMGDLLKRALD
  soluble fraction (log2): 0.432

## HMVEIGENIKKLRKAKRMTQKEVANQLNVTPQTISKWERNISYPDLDMLVKLSQLFHISTDALL
  soluble fraction (log2): -0.0765

## HMQAQQYYMLLMNKATSALKIEALGANSNKAHQSFGTKTAGGSAVYWGILFNSNGKIYKIVG
  soluble fraction (log2): -2.96

## HMLAVSVDKDGKVYIQDSETAVDAVTAKLRAISGNNSEIRIFVRGDADVNYGRIMEIMGVINAAGFRKVAL
  soluble fraction (log2): -0.467

## HMYDPVNEIGRVLKKIRQERSLTLDNVAEITGVSKTMLGQIERGVSVPTISVLWKIAKGLQVSLSTLLNE
  soluble fraction (log2): -0.826

## HMEGEVVESPLVGVAYLASGPDKPAFVQVGDSVSKGQTLLIIEAMKVMNEVPAPRDGIVTEILV
  soluble fraction (log2): 0.0266

## HMEYSNLGEALRRLSEIDLQIILLKYSHGFSIKEISKILDIKEVNLYKRNKRALNKLKKILAEMEVLSN
  soluble fraction (log2): -0.397

## HMAVIILDEPTLGLDPAVRISLWQAIQSARDSTMSAFLITTHYIKEVADYLSAVKILDHGREVASGNPSAL
  soluble fraction (log2): -0.302

## HMEFTKSPLDEIAGVGPARKRALLAAFGTAKAVSQAALADLEKTPGVNAATARLVYAHFHEK
  soluble fraction (log2): -0.143

## HMTSKIIIGDSYSKINKLLGEPENMKKRKFLDNEYLMVLYSINKKNYRLYFKDNILFELEDI
  soluble fraction (log2): -0.941

## HMENTGFKDKKGNYIFDGDIVKDILGNIMKVEFKHFKWQLIPLNKTAFNMPMVDWLDLETETLNAEIIGN
  soluble fraction (log2): -2.13

## HMPGLDTTILSDILSLKKELPSRSAAKILIMLILAKRIEEGSLNLRTINRILNQYGYTRESLL
  soluble fraction (log2): 0.0736

## HMNMPHEIDANFISSLGRLIDNHGKNYGDFQIFREMFLDYFPRFDELSSNNKEKINRRLYKFFETLFG
  soluble fraction (log2): -1.71

## HMLHSEDATVVRQAIPLLERHVDAATVAVARRNLAQLEQFGRYPRRNQALGRISNPAENAYLRAER
  soluble fraction (log2): 0.0897

## HMISKWGELVDLAVQLDIIQKSGSWFSMGDERIGQGANSVKDYLIANPDIAEKVEAEVRENLWKLN
  soluble fraction (log2): -0.129

## HMVTPAQQARDTLLGALVGLARATTSEPKTDDTDVVLNAGLRLAAQPDAPEERLQRMLAIVQTEKHRV
  soluble fraction (log2): 0.116

## HMETIGENIKTYRQKKGYTQEEVANRLHVTRQTISKWEKNYSIPDAEVLVKLADVLEVQTSQLLGV
  soluble fraction (log2): 0.102

## HMNREEFLSQLERLLYDIPAQEREEALEYYNGYFDDAGKEKEAEVIQELGSPGKVAAIIKADLSG
  soluble fraction (log2): -0.0285

## HMLIGLNETESLVLDALIANPMRIDQVSAMLKKDVATTLKFLGGLSVRGLVETLFGGRFAPTKIALHARS
  soluble fraction (log2): -0.276

## HMATRLPFGFAKRFGVLVEGKDDQITVYHKDGLQTAVILEIQRYLARPFRFEAVTPEEFERRLGLAYQS
  soluble fraction (log2): -0.808

## HMKYEFEFPYWSNKEAKHMIVTINYPNGTRATASIQDNDGSNPDYKRIMEEFGEEQIDANTEEGLKRR
  soluble fraction (log2): -0.0595

## HMLQLKEPLKKVYERLTPVPKTAETILAELWEKGEYLDIAALHRALMELELSGYVRQSSPGYFGTSA
  soluble fraction (log2): -0.096

## HMQKTQVVEVAGKSYQLTKMDARTGSYVAFKVAGVLAPSGGKTAEMAAALMGMPRKDFDELQSLLLRTV
  soluble fraction (log2): 0.141

## HMAPEPFILSVDADGKYYIDDLEKTKQEILIYATALYQEKPTTDFLVRGDKSAAYNDVLQAMVVLKE
  soluble fraction (log2): -0.0406

## HMEQLIIQEELSGKRLDQLVSLLFPSLTRAHAQKLIKEGAVLVNEKPRKPAYAVMTGELLTVELPEPE
  soluble fraction (log2): -0.0616

## HMPKLTKEEIQFIDNYLKNSGVEYIDTRAEVVDHVASEIESRLSANNTTNFYEEFKVYMVQHKETLLK
  soluble fraction (log2): -0.49

## HMDEMPVEFVKISIKAGHPWENRKIKDLASLPDLLLVLILRGEERIIPNGNTVVLAGDKIVLSALSPE
  soluble fraction (log2): -0.936

## HMVEMSNMELVREQYFQNLIYNVGDWVKDSKTEITGEVVKRGTNYLTIVQEDFTLHKVWLEDAESME
  soluble fraction (log2): -0.581

## HMGRELSDLELSLLRILDDKIPLLIDEAADRLQLPVAQVLSAVTIMEIDGLIRREGMRKYLRTVEVEETK
  soluble fraction (log2): -0.499
